Measured values as given in US20240132578A1.

Legend:
Experiment in all cases: cell-based or functional assay
[1] = target: HIV-1 Env of isolate MGRM-D-021 (pseudovirus) (HIV-1)
[2] = target: HIV-1 Env of isolate MGRM-F1-015 (HIV-1)
[3] = target: HIV-1 Env of isolate MGRM-F1-006 (HIV-1)
[4] = target: HIV-1 Env of isolate MGRM-F1-018 (HIV-1)
[5] = target: HIV-1 JR-CSF Env I414A (HIV-1 (isolate JR-CSF)) (UniProt P20871)
[6] = target: HIV-1 Env of isolate MGRM-D-024 (HIV-1)
[7] = target: HIV-1 Env of isolate MGRM-D-004 (pseudovirus) (HIV-1)
[8] = target: HIV-1 Env of pseudovirus isolate MGRM-C-014 (clade C) (HIV-1)
[9] = target: HIV-1 Env of isolate MGRM-Chronic-B-008 (HIV-1)
[10] = target: HIV-1 Env of isolate 92RW008 (pseudovirus) (HIV-1)
[11] = target: HIV-1 92UG024 envelope protein (Env) on pseudovirus (HIV-1)
[12] = target: HIV-1 Env of pseudovirus MGRM-F1-020 (HIV-1)
[13] = target: HIV-1 Env of pseudovirus MGRM-D-012 (HIV-1)
[14] = target: HIV-1 Env of pseudovirus MGRM-D-016 (HIV-1)
[15] = target: HIV-1 Env of pseudovirus MGRM-F1-017 (HIV-1)
[16] = target: HIV-1 envelope glycoprotein (Env) of isolate MGRM-C-017 (HIV-1)
[17] = target: HIV-1 Env of isolate MGRM-A-012 (clade A pseudovirus) (HIV-1)
[18] = target: HIV-1 Env of isolate MGRM-Chronic-B-008, clade B (HIV-1)
[19] = target: HIV-1 MGRM-G-004 Env (pseudovirus) (HIV-1)
[20] = target: HIV-1 envelope glycoprotein (Env) of isolate MGRM-C-024 (HIV-1)
[21] = target: HIV-1 Env of isolate 6535.3 (Acute), clade B (HIV-1)
[22] = target: HIV-1 Env of isolate APV_13, clade B (HIV-1)
[23] = target: HIV-1 Env of isolate MGRM-D-018 (clade D pseudovirus) (HIV-1)
[24] = target: HIV-1 Env of pseudovirus MGRM-F1-016 (clade F) (HIV-1)
[25] = target: HIV-1 APV-6 envelope (Env) on pseudovirus (HIV-1)
[26] = target: HIV-1 Env of pseudovirus MGRM-G-019 (HIV-1)
[27] = target: HIV-1 MGRM-AE-002 Env (pseudovirus) (HIV-1)
[28] = target: HIV-1 Env of isolate 92BR020, clade B (HIV-1)
[29] = target: HIV-1 Env of isolate 94UG103 (clade A pseudovirus) (HIV-1)
[30] = target: HIV-1 Env of isolate MGRM-A-008 (clade A pseudovirus) (HIV-1)
[31] = target: HIV-1 92TH021 Env (pseudovirus) (HIV-1)
[32] = target: HIV-1 Env of isolate MGRM-G-017 (subtype G) (HIV-1)
[33] = target: HIV-1 Env of isolate 94 KE 105 (pseudovirus) (HIV-1)
[34] = target: HIV-1 Env of pseudovirus isolate APV-13 (clade B) (HIV-1)
[35] = target: HIV-1 Env of isolate MGRM-AE-003 (pseudovirus) (HIV-1)
[36] = target: HIV-1 Env of isolate MGRM-C-020 (subtype C), on pseudovirus (HIV-1)
[37] = target: HIV-1 Env of isolate MGRM-G-016 (subtype G) (HIV-1)

1443_C16 (PG16) (TCN-116) (antibody), sequence (VH): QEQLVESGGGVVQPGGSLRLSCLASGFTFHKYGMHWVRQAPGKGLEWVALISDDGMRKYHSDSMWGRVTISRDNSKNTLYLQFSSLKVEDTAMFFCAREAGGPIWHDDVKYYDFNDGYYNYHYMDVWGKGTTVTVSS
1443_C16 (PG16) (TCN-116) (antibody), sequence (VL): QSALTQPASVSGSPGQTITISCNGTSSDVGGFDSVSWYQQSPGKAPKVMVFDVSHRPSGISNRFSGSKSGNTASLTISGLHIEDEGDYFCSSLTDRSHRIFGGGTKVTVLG
PGT-141 (4964_G22; 4993_K13) (antibody), sequence (VH): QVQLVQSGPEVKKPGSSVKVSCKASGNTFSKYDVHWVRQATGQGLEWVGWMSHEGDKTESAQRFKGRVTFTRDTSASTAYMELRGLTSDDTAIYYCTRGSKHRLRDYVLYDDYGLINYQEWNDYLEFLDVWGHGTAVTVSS
PGT-141 (4964_G22; 4993_K13) (antibody), sequence (VL): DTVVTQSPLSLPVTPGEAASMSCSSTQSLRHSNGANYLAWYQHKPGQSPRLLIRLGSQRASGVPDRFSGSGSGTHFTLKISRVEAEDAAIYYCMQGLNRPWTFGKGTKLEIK
PGT-142 (4995_E20) (antibody), sequence (VH): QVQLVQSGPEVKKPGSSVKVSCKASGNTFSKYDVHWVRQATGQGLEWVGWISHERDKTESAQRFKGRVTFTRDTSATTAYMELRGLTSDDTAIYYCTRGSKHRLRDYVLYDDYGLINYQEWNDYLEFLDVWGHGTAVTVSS
PGT-144 (4970_K22) (antibody), sequence (VH): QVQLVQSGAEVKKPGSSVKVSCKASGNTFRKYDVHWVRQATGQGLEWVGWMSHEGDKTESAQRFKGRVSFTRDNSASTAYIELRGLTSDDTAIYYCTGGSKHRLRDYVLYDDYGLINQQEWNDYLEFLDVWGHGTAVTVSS
PGT-144 (4970_K22) (antibody), sequence (VL): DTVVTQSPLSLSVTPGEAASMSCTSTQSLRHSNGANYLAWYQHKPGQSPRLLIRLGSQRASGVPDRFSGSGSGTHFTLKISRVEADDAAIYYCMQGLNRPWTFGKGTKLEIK
PGT-145 (4995_P16) (antibody), sequence (VH): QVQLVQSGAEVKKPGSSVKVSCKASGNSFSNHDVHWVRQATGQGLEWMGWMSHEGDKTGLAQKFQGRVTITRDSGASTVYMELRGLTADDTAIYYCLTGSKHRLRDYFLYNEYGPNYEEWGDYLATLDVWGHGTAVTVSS
PGT-145 (4995_P16) (antibody), sequence (VL): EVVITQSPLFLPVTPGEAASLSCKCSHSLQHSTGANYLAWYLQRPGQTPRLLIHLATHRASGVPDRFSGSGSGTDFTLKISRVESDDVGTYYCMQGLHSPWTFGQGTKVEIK
PGT-143 (4980_N08) (antibody), sequence (VH): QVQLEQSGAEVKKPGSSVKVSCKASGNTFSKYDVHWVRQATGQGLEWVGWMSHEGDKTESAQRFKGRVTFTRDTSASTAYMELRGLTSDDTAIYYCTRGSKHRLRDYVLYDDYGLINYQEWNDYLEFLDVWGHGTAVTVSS
PGT-143 (4980_N08) (antibody), sequence (VL): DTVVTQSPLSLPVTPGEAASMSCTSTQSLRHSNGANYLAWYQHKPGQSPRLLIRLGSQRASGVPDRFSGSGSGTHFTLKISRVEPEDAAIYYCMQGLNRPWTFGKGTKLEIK

Substance	IC50, pseudovirus neutralization [12]	IC50, pseudovirus neutralization [13]	IC50, pseudovirus neutralization [14]	IC50, pseudovirus neutralization [15]	IC50 (µg/ml), pseudovirus neutralization [16]	IC50 (µg/ml), pseudovirus neutralization [17]	IC50 (µg/ml), pseudovirus neutralization [18]	IC50 (µg/ml), pseudovirus neutralization [19]	IC50 (µg/ml), pseudovirus neutralization [20]	IC50 (µg/ml), pseudovirus neutralization [21]	IC50 (µg/ml), pseudovirus neutralization [22]	IC50, pseudovirus neutralization [23]	IC50 [24]	neutralization IC50 [25]	IC50 (µg/ml), pseudovirus neutralization [26]	IC50 (µg/ml), pseudovirus neutralization [27]	IC50 (µg/ml), pseudovirus neutralization [28]	IC50 (µg/ml), pseudovirus neutralization [29]	IC50 (µg/ml), pseudovirus neutralization [30]	further results
5147_N06 (PGT-130) (antibody)																				IC50 (µg/mL), pseudovirus neutralization [1]: 0.156 µg/mL; IC50 (µg/mL), pseudovirus neutralization [2]: > 50 µg/mL; IC50 (µg/mL), pseudovirus neutralization [3]: > 50 µg/mL; IC50 (µg/mL), pseudovirus neutralization [4]: > 50 µg/mL; Fold IC50 increase relative to wild-type (pseudovirus neutralization) [5]: 0.7 fold; IC50 (µg/mL), pseudovirus neutralization [6]: > 50 µg/mL; IC50 (µg/mL), pseudovirus neutralization [7]: 1.21 µg/mL; IC50, pseudovirus neutralization [8]: > 50 µg/mL; IC50 (µg/mL), pseudovirus neutralization [9]: 5.18 µg/mL; IC50 (µg/mL), pseudovirus neutralization [10]: 0.039 µg/mL; IC50 (ug/mL), pseudovirus neutralization [11]: > 10 µg/mL
PGT-141 (4964_G22; 4993_K13) (antibody)	1.15 µg/mL	> 50 µg/mL	> 50 µg/mL	30.8 µg/mL																
2F5 (antibody)					> 50 µg/mL	2.36 µg/mL	> 50 µg/mL	> 50 µg/mL	> 50 µg/mL	2.76 µg/mL	3.81 µg/mL	4.05 µg/mL	21.5 µg/mL	0.1 µg/mL	> 50 µg/mL	0.31 µg/mL	> 50 µg/mL	1.92 µg/mL	> 50 µg/mL	
PGT-142 (4995_E20) (antibody)	0.824 µg/mL	> 50 µg/mL	> 50 µg/mL	23.5 µg/mL																
2G12 (antibody)					> 50 µg/mL	> 50 µg/mL	0.55 µg/mL	> 50 µg/mL	> 50 µg/mL	3.85 µg/mL	9.24 µg/mL	0.12 µg/mL	> 50 µg/mL	5.3 µg/mL	31 µg/mL	> 50 µg/mL	4.84 µg/mL	48.1 µg/mL	> 50 µg/mL	IC50 (µg/ml), pseudovirus neutralization [31]: > 50 µg/mL
PGT-145 (4995_P16) (antibody)	0.816 µg/mL	> 50 µg/mL	> 50 µg/mL	0.286 µg/mL																
5343_B08 (PGT-135) (antibody)																				IC50 (µg/mL), pseudovirus neutralization [1]: > 50 µg/mL; IC50 (µg/mL), pseudovirus neutralization [2]: 1.11 µg/mL; IC50 (µg/mL), pseudovirus neutralization [3]: > 50 µg/mL; IC50 (µg/mL), pseudovirus neutralization [4]: > 50 µg/mL; Fold IC50 increase relative to wild-type (pseudovirus neutralization) [5]: 1.2 fold; IC50 (µg/mL), pseudovirus neutralization [6]: > 50 µg/mL; IC50 (µg/mL), pseudovirus neutralization [7]: > 50 µg/mL; IC50, pseudovirus neutralization [8]: > 50 µg/mL; IC50 (µg/mL), pseudovirus neutralization [9]: > 50 µg/mL; IC50 (µg/mL), pseudovirus neutralization [10]: 1.42 µg/mL; IC50 (ug/mL), pseudovirus neutralization [11]: 0.0139 µg/mL
1495_C14 (PGC14) (antibody)					> 50 µg/mL	> 50 µg/mL	> 50 µg/mL	> 50 µg/mL	> 50 µg/mL	35 µg/mL	> 50 µg/mL	> 50 µg/mL	> 50 µg/mL	7.41 µg/mL	> 50 µg/mL	> 50 µg/mL	4 µg/mL	> 50 µg/mL	> 50 µg/mL	IC50 (µg/ml), pseudovirus neutralization [31]: > 50 µg/mL
PGT-143 (4980_N08) (antibody)	0.98 µg/mL	> 50 µg/mL	> 50 µg/mL	26.3 µg/mL																
1443_C16 (PG16) (TCN-116) (antibody)					1.8 µg/mL	20.7 µg/mL	0.73 µg/mL	> 50 µg/mL	0.04 µg/mL	36.9 µg/mL	> 50 µg/mL	0.004 µg/mL	1.12 µg/mL	0.08 µg/mL	1.21 µg/mL	0.01 µg/mL	> 50 µg/mL	0.04 µg/mL	> 50 µg/mL	IC50 (µg/ml), pseudovirus neutralization [31]: 0.1 µg/mL
PGT-144 (4970_K22) (antibody)	8.93 µg/mL	> 50 µg/mL	> 50 µg/mL	> 50 µg/mL																
VRC01 (antibody)	1.89 µg/mL	0.216 µg/mL	0.452 µg/mL	1.08 µg/mL																IC50 (µg/mL), pseudovirus neutralization [32]: 0.124 µg/mL; IC50 (µg/mL), single-round pseudovirus neutralization [33]: 0.499 µg/mL; IC50, pseudovirus neutralization [34]: 0.657 µg/mL; IC50 (µg/mL), single-round pseudovirus neutralization [35]: 0.685 µg/mL; IC50, single-round pseudovirus neutralization [36]: 0.396 µg/mL; IC50 (µg/mL), pseudovirus neutralization [37]: 0.063 µg/mL
b12 (antibody)					> 50 µg/mL	> 50 µg/mL	2.82 µg/mL	> 50 µg/mL	> 50 µg/mL	1.93 µg/mL	> 50 µg/mL	1.39 µg/mL	> 50 µg/mL	> 25 µg/mL	3.77 µg/mL	17.1 µg/mL	> 50 µg/mL	6.92 µg/mL	> 50 µg/mL	
4E10 (antibody)					1.47 µg/mL	4.27 µg/mL	16.7 µg/mL	1.47 µg/mL	22.6 µg/mL	1.23 µg/mL	7.33 µg/mL	3.9 µg/mL	7.61 µg/mL	0.4 µg/mL	6.53 µg/mL	0.55 µg/mL	> 50 µg/mL	4.97 µg/mL	7.59 µg/mL	IC50 (µg/ml), pseudovirus neutralization [31]: 1.17 µg/mL
